{"source": "the RNAGym collection of RNA variant scans (doi:10.1073/pnas.2313332121)", "parents": {"B1": {"name": "TPR t1 (parent)", "chain": "GACCAAUCUGCCCUCAGAGCUCGAGAACAUCUUCGGAUGCAGAGGAGGCAGGCUUCGGUGGCGCGAUAGCGCCAACGUCCUCAACCUCCAAUGCAUCCCACCACAUGAUGAUGCCUGAAGAGCCUUGGUUUUUUG"}}, "data": [{"variants_of": "B1", "assay": "polymerase ribozyme fitness, log enrichment relative to wild type (log ratio); higher = more active; in vitro selection for triplet polymerase activity", "method_in_brief": "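Input and output libraries were sequenced on Illumina after a single in vitro selection round, run in triplicate on PCR-built, transcribed mutant libraries of each subunit of a heterodimeric triplet polymerase ribozyme. Selection annealed libraries to a biotinylated primer, the partner subunit and triplets, incubated them frozen at −7 °C, then gel-excised extended constructs for streptavidin-bead capture and RT-PCR. Genotypes with ≥10 input reads and ≥1 read per output were kept. Fitness is the logarithm, taken in base 2, of genotype enrichment divided by wild-type enrichment, using inverse-variance-weighted replicate averages.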", "values": [{"variant": "C28G G71A A83G U87G A119U", "polymerase ribozyme fitness (log ratio)": -5.64}, {"variant": "C56U A90C G110A A111G U132A", "polymerase ribozyme fitness (log ratio)": -0.678}, {"variant": "A5C C12A", "polymerase ribozyme fitness (log ratio)": -0.824}, {"variant": "G39A C104U", "polymerase ribozyme fitness (log ratio)": -0.931}, {"variant": "A46U C94G C98U", "polymerase ribozyme fitness (log ratio)": -4.76}, {"variant": "U32C C79U U106C", "polymerase ribozyme fitness (log ratio)": -0.788}, {"variant": "C56U C62U C101G U133A", "polymerase ribozyme fitness (log ratio)": -3.24}, {"variant": "C12U G42U C70U U81C G120U", "polymerase ribozyme fitness (log ratio)": -1.9}, {"variant": "U112A C115A U125G", "polymerase ribozyme fitness (log ratio)": 0.414}, {"variant": "C11U C40G C64U", "polymerase ribozyme fitness (log ratio)": -1.72}, {"variant": "G44U C62A", "polymerase ribozyme fitness (log ratio)": -2.41}, {"variant": "G42C G63A", "polymerase ribozyme fitness (log ratio)": -3.47}, {"variant": "A27G C76U C89U G93A", "polymerase ribozyme fitness (log ratio)": -3.34}, {"variant": "C70G G117U", "polymerase ribozyme fitness (log ratio)": -4.3}, {"variant": "A18U A24C A27U C40U G63C C89G U116A A121G", "polymerase ribozyme fitness (log ratio)": -5.65}, {"variant": "U32G U33C A43U A91U", "polymerase ribozyme fitness (log ratio)": -6.04}, {"variant": "A43G U54C C88U", "polymerase ribozyme fitness (log ratio)": -1.48}, {"variant": "C40G G44C C73U U125G", "polymerase ribozyme fitness (log ratio)": -2.93}, {"variant": "C8A A18G U109C C115A", "polymerase ribozyme fitness (log ratio)": -5.42}, {"variant": "U30C G48C C64U U81A U87A C124A", "polymerase ribozyme fitness (log ratio)": -4.9}, {"variant": "C11U A29U A91U G107C C114U", "polymerase ribozyme fitness (log ratio)": -5.83}, {"variant": "A2U C3G C4U C72U G77A U92G A118U C123G G128A", "polymerase ribozyme fitness (log ratio)": -3.1}, {"variant": "G42A A91C C123U U131A", "polymerase ribozyme fitness (log ratio)": -1.71}, {"variant": "A2C G63U C115U", "polymerase ribozyme fitness (log ratio)": -4.82}, {"variant": "C22U A84C", "polymerase ribozyme fitness (log ratio)": -4.07}, {"variant": "C12U C53G A90C", "polymerase ribozyme fitness (log ratio)": -1.61}, {"variant": "A2U U14A G69U C82U A119C G120U", "polymerase ribozyme fitness (log ratio)": -2.15}, {"variant": "C53G G57A A66G C70A G113U", "polymerase ribozyme fitness (log ratio)": -7.08}, {"variant": "A16C G122A", "polymerase ribozyme fitness (log ratio)": -4.43}, {"variant": "A26G G69U C70A G113U", "polymerase ribozyme fitness (log ratio)": -4.8}, {"variant": "G42A G63A A83U A121U", "polymerase ribozyme fitness (log ratio)": -3.11}, {"variant": "C4A C13U C15G A37C G113A A121C", "polymerase ribozyme fitness (log ratio)": -6.02}, {"variant": "C12G A16G C53A C80U", "polymerase ribozyme fitness (log ratio)": -5.01}, {"variant": "C53A G110U", "polymerase ribozyme fitness (log ratio)": -1.02}, {"variant": "G45U A50U C114A G135A", "polymerase ribozyme fitness (log ratio)": -5.32}, {"variant": "C73U G120A", "polymerase ribozyme fitness (log ratio)": 0.593}, {"variant": "A18U A41G U106A C124G", "polymerase ribozyme fitness (log ratio)": -1.51}, {"variant": "U32C C79G U81C G113A", "polymerase ribozyme fitness (log ratio)": -2.36}, {"variant": "C89G A111G G113C", "polymerase ribozyme fitness (log ratio)": -3.54}, {"variant": "G39A G48U G71U U116A U129A", "polymerase ribozyme fitness (log ratio)": -5.41}, {"variant": "A6U U59C A119G", "polymerase ribozyme fitness (log ratio)": 0.571}, {"variant": "C4G A27G A29G", "polymerase ribozyme fitness (log ratio)": -5.02}, {"variant": "G51A C64A", "polymerase ribozyme fitness (log ratio)": -6.96}, {"variant": "C3U A27G G42U C72U C82U C104U", "polymerase ribozyme fitness (log ratio)": -3.31}, {"variant": "C13U G60C C82U U96G", "polymerase ribozyme fitness (log ratio)": -1.02}, {"variant": "G61U C82G C94U", "polymerase ribozyme fitness (log ratio)": -0.714}, {"variant": "C8G G36A G44A", "polymerase ribozyme fitness (log ratio)": -1.23}, {"variant": "A46U C56A", "polymerase ribozyme fitness (log ratio)": -1.15}, {"variant": "C49U A118U", "polymerase ribozyme fitness (log ratio)": -0.365}, {"variant": "C13U C40A", "polymerase ribozyme fitness (log ratio)": -0.359}, {"variant": "C85G G117C", "polymerase ribozyme fitness (log ratio)": -5.23}, {"variant": "C15G G61C A119G", "polymerase ribozyme fitness (log ratio)": -0.591}, {"variant": "U7C C8G C12U G19C C115A G128C", "polymerase ribozyme fitness (log ratio)": -1.55}, {"variant": "G19U C86U", "polymerase ribozyme fitness (log ratio)": -2.9}, {"variant": "G10U C49U C72G C82A C114A", "polymerase ribozyme fitness (log ratio)": -2.83}, {"variant": "C70G G77A G93A A100U A105G U106A", "polymerase ribozyme fitness (log ratio)": -4.21}, {"variant": "A2C C62U A75U G110A", "polymerase ribozyme fitness (log ratio)": -4.14}, {"variant": "U32A G57U", "polymerase ribozyme fitness (log ratio)": -4.02}, {"variant": "C8A C76U U87A U112A A121C U133G", "polymerase ribozyme fitness (log ratio)": 0.984}, {"variant": "C97U G110C", "polymerase ribozyme fitness (log ratio)": -3.29}, {"variant": "C85A A95U A100U", "polymerase ribozyme fitness (log ratio)": -3.28}, {"variant": "A27G C56A", "polymerase ribozyme fitness (log ratio)": -2.09}, {"variant": "C11U C49G U92A C123G", "polymerase ribozyme fitness (log ratio)": -3.91}, {"variant": "C15A G69C", "polymerase ribozyme fitness (log ratio)": -3.57}, {"variant": "U9G G52A U112C", "polymerase ribozyme fitness (log ratio)": 1.21}, {"variant": "C53G C70A G117A", "polymerase ribozyme fitness (log ratio)": -3.42}, {"variant": "G61A C88G C98G C123G", "polymerase ribozyme fitness (log ratio)": -6.3}, {"variant": "U30C G47U C53U U54A U133A", "polymerase ribozyme fitness (log ratio)": -4.89}, {"variant": "C49U C72U", "polymerase ribozyme fitness (log ratio)": -0.879}, {"variant": "G44U C53G G61C G93A", "polymerase ribozyme fitness (log ratio)": -2.01}, {"variant": "C12U A29G G71U G128A", "polymerase ribozyme fitness (log ratio)": -3.03}, {"variant": "C62G C115G U125A", "polymerase ribozyme fitness (log ratio)": -3.31}, {"variant": "A18U G48A C49A C85G U133A", "polymerase ribozyme fitness (log ratio)": -3.22}, {"variant": "A29U C98A U109G", "polymerase ribozyme fitness (log ratio)": -4.46}, {"variant": "C15A C72G C104U", "polymerase ribozyme fitness (log ratio)": -1.9}, {"variant": "G45A A50C G63A C82G G117C", "polymerase ribozyme fitness (log ratio)": -6.01}, {"variant": "C49A G51C A100C U132A", "polymerase ribozyme fitness (log ratio)": -5.52}, {"variant": "G19A G58C G107A C114U", "polymerase ribozyme fitness (log ratio)": -3.12}, {"variant": "C40A C56U C72G", "polymerase ribozyme fitness (log ratio)": -3.26}, {"variant": "C13G U112A G113A", "polymerase ribozyme fitness (log ratio)": -2.13}, {"variant": "G17U C88U G127C", "polymerase ribozyme fitness (log ratio)": -3.89}, {"variant": "U54C C98U A121U", "polymerase ribozyme fitness (log ratio)": 1.37}, {"variant": "A18C C49A U78G C114U", "polymerase ribozyme fitness (log ratio)": -4.02}]}]}
